Data on 20 variants can be found in IntAct's records for PubMed 31515488.

To fix the notation:
B1: EF-hand domain-containing protein 1 (Homo sapiens), Q5JVL4 (parent)
chain: MVSNPVHGLPFLPGTSFKDSTKTAFHRSQTLSYRNGYAIVRRPTVGIGGDRLQFNQLSQAELDELASKAPVLTYGQPKQAPPADFIPAHVAFDKKVLKFDAYFQEDVPMSTEEQYRIRQVNIYYYLEDDSMSVIEPVVENSGILQGKLIKRQRLAKNDRGDHYHWKDLNRGINITIYGKTFRVVDCDQFTQVFLESQGIELNPPEKMALDPYTELRKQPLRKYVTPSDFDQLKQFLTFDKQVLRFYAIWDDTDSMYGECRTYIIHYYLMDDTVEIREVHERNDGRDPFPLLMNRQRVPKVLVENAKNFPQCVLEISDQEVLEWYTAKDFIVGKSLTILGRTFFIYDCDPFTRRYYKEKFGITDLPRIDVSKREPPPVKQELPPYNGFGLVEDSAQNCFALIPKAPKKDVIKMLVNDNKVLRYLAVLESPIPEDKDRRFVFSYFLATDMISIFEPPVRNSGIIGGKYLGRTKVVKPYSTVDNPVYYGPSDFFIGAVIEVFGHRFIILDTDEYVLKYMESNAAQYSPEALASIQNHVRKREAPAPEAESKQTEKDPGVQELEALIDTIQKQLKDHSCKDNIREAFQIYDKEASGYVDRDMFFKICESLNVPVDDSLVKELIRMCSHGEGKINYYNFVRAFSN
B2: Caspase recruitment domain-containing protein 9 (Homo sapiens), Q9H257 (parent)
chain: MSDYENDDECWSVLEGFRVTLTSVIDPSRITPYLRQCKVLNPDDEEQVLSDPNLVIRKRKVGVLLDILQRTGHKGYVAFLESLELYYPQLYKKVTGKEPARVFSMIIDASGESGLTQLLMTEVMKLQKKVQDLTALLSSKDDFIKELRVKDSLLRKHQERVQRLKEECEAGSRELKRCKEENYDLAMRLAHQSEEKGAALMRNRDLQLEIDQLKHSLMKAEDDCKVERKHTLKLRHAMEQRPSQELLWELQQEKALLQARVQELEASVQEGKLDRSSPYIQVLEEDWRQALRDHQEQANTIFSLRKDLRQGEARRLRCMEEKEMFELQCLALRKDSKMYKDRIEAILLQMEEVAIERDQAIATREELHAQHARGLQEKDALRKQVRELGEKADELQLQVFQCEAQLLAVEGRLRRQQLETLVLSSDLEDGSPRRSQELSLPQDLEDTQLSDKGCLAGGGSPKQPFAALHQEQVLRNPHDAGLSSGEPPEKERRRLKESFENYRRKRALRKMQKGWRQGEEDRENTTGSDNTDTEGS
partner: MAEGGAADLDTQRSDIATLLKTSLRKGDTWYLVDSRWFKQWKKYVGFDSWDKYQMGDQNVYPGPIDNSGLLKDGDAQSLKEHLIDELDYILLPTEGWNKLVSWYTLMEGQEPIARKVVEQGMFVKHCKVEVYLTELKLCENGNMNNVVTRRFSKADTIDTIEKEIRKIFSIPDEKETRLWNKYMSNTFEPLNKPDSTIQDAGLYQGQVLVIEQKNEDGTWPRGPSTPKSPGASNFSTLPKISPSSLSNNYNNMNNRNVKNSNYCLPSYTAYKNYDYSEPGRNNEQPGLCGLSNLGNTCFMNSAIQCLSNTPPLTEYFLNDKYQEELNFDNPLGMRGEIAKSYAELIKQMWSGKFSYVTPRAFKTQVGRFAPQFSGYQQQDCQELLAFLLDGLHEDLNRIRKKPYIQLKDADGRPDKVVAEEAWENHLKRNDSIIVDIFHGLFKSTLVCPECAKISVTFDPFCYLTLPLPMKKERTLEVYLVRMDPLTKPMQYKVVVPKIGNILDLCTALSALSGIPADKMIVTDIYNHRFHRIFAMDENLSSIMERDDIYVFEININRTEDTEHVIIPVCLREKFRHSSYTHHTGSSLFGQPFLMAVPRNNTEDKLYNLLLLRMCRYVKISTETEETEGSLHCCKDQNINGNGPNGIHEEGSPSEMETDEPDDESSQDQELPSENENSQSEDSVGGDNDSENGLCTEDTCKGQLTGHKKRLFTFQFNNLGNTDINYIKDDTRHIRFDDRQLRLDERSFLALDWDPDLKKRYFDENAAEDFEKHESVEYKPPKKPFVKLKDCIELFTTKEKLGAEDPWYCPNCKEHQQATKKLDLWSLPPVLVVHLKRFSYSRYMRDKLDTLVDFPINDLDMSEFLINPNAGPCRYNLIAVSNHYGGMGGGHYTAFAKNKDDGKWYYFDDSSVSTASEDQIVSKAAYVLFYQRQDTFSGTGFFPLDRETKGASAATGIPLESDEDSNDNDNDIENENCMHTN
B3: Stabilizer of axonemal microtubules 1 (Homo sapiens), Q8IYX7 (parent)
chain: MKTKCICELCSCGRHHCPHLPTKIYDKTEKPCLLSEYTENYPFYHSYLPRESFKPRREYQKGPIPMEGLTTSRRDFGPHKVAPVKVHQYDQFVPSEENMDLLTTYKKDYNPYPVCRVDPIKPRDSKYPCSDKMECLPTYKADYLPWNQPRREPLRLEHKYQPASVRFDNRTTHQDDYPIKGLVKTISCKPLAMPKLCNIPLEDVTNYKMSYVAHPVEKRFVHEAEKFRPCEIPFESLTTQKQSYRGLMGEPAKSLKPLARPPGLDMPFCNTTEFRDKYQAWPMPRMFSKAPITYVPPEDRMDLLTTVQAHYTCPKGAPAQSCRPALQIKKCGRFEGSSTTKDDYKQWSSMRTEPVKPVPQLDLPTEPLDCLTTTRAHYVPHLPINTKSCKPHWSGPRGNVPVESQTTYTISFTPKEMGRCLASYPEPPGYTFEEVDALGHRIYKPVSQAGSQQSSHLSVDDSENPNQRELEVLA
partner: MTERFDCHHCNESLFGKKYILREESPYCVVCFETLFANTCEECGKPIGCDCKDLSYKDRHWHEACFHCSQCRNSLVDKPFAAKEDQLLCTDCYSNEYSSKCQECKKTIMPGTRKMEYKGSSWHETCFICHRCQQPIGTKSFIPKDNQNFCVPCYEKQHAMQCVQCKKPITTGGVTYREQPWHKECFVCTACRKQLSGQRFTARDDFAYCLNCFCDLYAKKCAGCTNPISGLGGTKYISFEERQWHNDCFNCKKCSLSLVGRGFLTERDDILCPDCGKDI
B4: NADPH-dependent diflavin oxidoreductase 1 (Homo sapiens), Q9UHB4 (parent)
chain: MPSPQLLVLFGSQTGTAQDVSERLGREARRRRLGCRVQALDSYPVVNLINEPLVIFVCATTGQGDPPDNMKNFWRFIFRKNLPSTALCQMDFAVLGLGDSSYAKFNFVAKKLHRRLLQLGGSALLPVCLGDDQHELGPDAAVDPWLRDLWDRVLGLYPPPPGLTEIPPGVPLPSKFTLLFLQEAPSTGSEGQRVAHPGSQEPPSESKPFLAPMISNQRVTGPSHFQDVRLIEFDILGSGISFAAGDVVLIQPSNSAAHVQRFCQVLGLDPDQLFMLQPREPDVSSPTRLPQPCSMRHLVSHYLDIASVPRRSFFELLACLSLHELEREKLLEFSSAQGQEELFEYCNRPRRTILEVLCDFPHTAAAIPPDYLLDLIPVIRPRAFSIASSLLTHPSRLQILVAVVQFQTRLKEPRRGLCSSWLASLDPGQGPVRVPLWVRPGSLAFPETPDTPVIMVGPGTGVAPFRAAIQERVAQGQTGNFLFFGCRWRDQDFYWEAEWQELEKRDCLTLIPAFSREQEQKVYVQHRLRELGSLVWELLDRQGAYFYLAGNAKSMPADVSEALMSIFQEEGGLCSPDAAAYLARLQQTRRFQTETWA
B5: Synaptotagmin-like protein 4 (Homo sapiens), Q96C24 (parent)
chain: MSELLDLSFLSEEEKDLILSVLQRDEEVRKADEKRIRRLKNELLEIKRKGAKRGSQHYSDRTCARCQESLGRLSPKTNTCRGCNHLVCRDCRIQESNGTWRCKVCAKEIELKKATGDWFYDQKVNRFAYRTGSEIIRMSLRHKPAVSKRETVGQSLLHQTQMGDIWPGRKIIQERQKEPSVLFEVPKLKSGKSALEAESESLDSFTADSDSTSRRDSLDKSGLFPEWKKMSAPKSQVEKETQPGGQNVVFVDEGEMIFKKNTRKILRPSEYTKSVIDLRPEDVVHESGSLGDRSKSVPGLNVDMEEEEEEEDIDHLVKLHRQKLARSSMQSGSSMSTIGSMMSIYSEAGDFGNIFVTGRIAFSLKYEQQTQSLVVHVKECHQLAYADEAKKRSNPYVKTYLLPDKSRQGKRKTSIKRDTINPLYDETLRYEIPESLLAQRTLQFSVWHHGRFGRNTFLGEAEIQMDSWKLDKKLDHCLPLHGKISAESPTGLPSHKGELVVSLKYIPASKTPVGGDRKKSKGGEGGELQVWIKEAKNLTAAKAGGTSDSFVKGYLLPMRNKASKRKTPVMKKTLNPHYNHTFVYNGVRLEDLQHMCLELTVWDREPLASNDFLGGVRLGVGTGISNGEVVDWMDSTGEEVSLWQKMRQYPGSWAEGTLQLRSSMAKQKLGL
B6: Testis-specific protein 10-interacting protein (Homo sapiens), Q3SY00 (parent)
chain: MGQDTDMLNTYQQLVRTPSVRPGQDVRLQAPGTRTGLLKLLSTVSQDKQGCLGSGDGVPNQDLQQRSQSSRQTAKKDRKPRGQSKKGQGSEESEDHFPLLPRKPSFPFQWAWESIATDVRAVLQPSSPTPGHQALPMPSSFSQRQSRRKSTANLPEAHGCCWKTEAQNLKARQQLGAWGGVSIPTGKGELGSEPPSGLQLPGRRPGSGSASDKQVQLQSLGAEEAERGLSSGVLPQRPRRGSISEEEQFSEATEEAEEGEHRTPCRRRAGCQRKGQISGEEASDEGEVQGQSQGSSPSFNNLRRRQWRKTRAKELQGPWDLEKLHRQLQRDLDCGPQKLPWKTLRAAFQASKRNGKAYASGYDETFVSANLPNRTFHKRQEATRSLLQAWERQRQEERQQAELRRARTQHVQRQVAHCLAAYAPRGSRGPGAAQRKLEELRRQERQRFAEYQAELQGIQHRVQARPFLFQQAMQANARLTVTRRFSQVLSALGLDEEQLLSEAGKVDREGTPRKPRSHRSMGVRMEHSPQRPPRTEPTGSQPDRHYNPSLDPECSP
B7: Syntenin-2 (Homo sapiens), Q9H190 (parent)
chain: MSSLYPSLEDLKVDQAIQAQVRASPKMPALPVQATAISPPPVLYPNLAELENYMGLSLSSQEVQESLLQIPEGDSTAVSGPGPGQMVAPVTGYSLGVRRAEIKPGVREIHLCKDERGKTGLRLRKVDQGLFVQLVQANTPASLVGLRFGDQLLQIDGRDCAGWSSHKAHQVVKKASGDKIVVVVRDRPFQRTVTMHKDSMGHVGFVIKKGKIVSLVKGSSAARNGLLTNHYVCEVDGQNVIGLKDKKIMEILATAGNVVTLTIIPSVIYEHMVKKLPPVLLHHTMDHSIPDA
partner: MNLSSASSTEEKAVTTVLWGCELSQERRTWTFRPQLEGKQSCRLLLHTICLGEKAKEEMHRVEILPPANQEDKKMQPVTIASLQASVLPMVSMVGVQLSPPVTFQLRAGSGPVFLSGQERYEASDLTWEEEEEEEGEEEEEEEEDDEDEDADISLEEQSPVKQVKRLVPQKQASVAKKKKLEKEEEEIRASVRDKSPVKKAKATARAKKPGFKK

Variants of B1 are the subject of the first experiment. The conditions noted are these: with itf2_human TCF4, P15884.
Target sequence in this assay (P15884 whole entry): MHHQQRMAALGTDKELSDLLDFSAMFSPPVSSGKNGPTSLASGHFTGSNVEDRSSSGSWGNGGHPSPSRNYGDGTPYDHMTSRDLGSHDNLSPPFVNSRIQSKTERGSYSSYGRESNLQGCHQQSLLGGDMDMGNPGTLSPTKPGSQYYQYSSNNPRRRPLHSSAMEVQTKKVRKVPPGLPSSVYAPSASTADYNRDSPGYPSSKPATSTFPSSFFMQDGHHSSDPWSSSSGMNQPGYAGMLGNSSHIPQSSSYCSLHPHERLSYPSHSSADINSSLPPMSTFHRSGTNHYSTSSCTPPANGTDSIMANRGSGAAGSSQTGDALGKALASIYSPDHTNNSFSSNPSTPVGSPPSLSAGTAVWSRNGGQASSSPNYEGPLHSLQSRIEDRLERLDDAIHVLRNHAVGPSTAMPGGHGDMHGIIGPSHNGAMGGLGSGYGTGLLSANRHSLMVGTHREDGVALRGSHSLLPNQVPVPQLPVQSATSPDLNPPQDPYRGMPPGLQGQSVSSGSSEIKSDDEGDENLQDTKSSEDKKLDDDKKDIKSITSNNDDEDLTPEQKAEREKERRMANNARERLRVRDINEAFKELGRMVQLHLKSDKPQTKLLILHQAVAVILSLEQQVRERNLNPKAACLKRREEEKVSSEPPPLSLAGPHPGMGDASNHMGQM
Consider Y102C, for which the “effect of a mutation on the interaction” value is listed as “with no effect”.

As to F229L, the “effect of a mutation on the interaction” value is on record as “with no effect”.

Variants of B1 are the subject of a further experiment. The note with it: with ikzf3_human IKZF3, Q9UKT9.
ikzf3_human IKZF3, Q9UKT9, sequence (Q9UKT9 whole entry): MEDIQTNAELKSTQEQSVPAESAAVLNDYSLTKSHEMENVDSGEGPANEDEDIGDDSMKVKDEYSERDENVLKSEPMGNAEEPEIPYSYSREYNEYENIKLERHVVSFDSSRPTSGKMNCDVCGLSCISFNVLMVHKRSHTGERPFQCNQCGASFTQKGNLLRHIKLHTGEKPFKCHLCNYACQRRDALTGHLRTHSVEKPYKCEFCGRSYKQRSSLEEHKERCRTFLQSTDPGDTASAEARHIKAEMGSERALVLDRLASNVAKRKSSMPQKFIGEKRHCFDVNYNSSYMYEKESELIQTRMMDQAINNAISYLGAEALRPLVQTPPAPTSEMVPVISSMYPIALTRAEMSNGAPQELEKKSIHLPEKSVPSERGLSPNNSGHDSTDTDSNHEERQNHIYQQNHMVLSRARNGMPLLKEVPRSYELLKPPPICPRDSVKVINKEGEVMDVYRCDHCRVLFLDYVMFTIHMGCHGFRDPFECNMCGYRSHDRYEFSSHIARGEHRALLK
Take Y102C: the “effect of a mutation on the interaction” value is reported as “with no effect”.

In the case of F229L, the “effect of a mutation on the interaction” value is “with no effect”.

The next experiment covers variants of B2. The conditions noted are these: with ubp15_human USP15, Q9Y4E8.
Turning to V385L, the “effect of a mutation on the interaction” value is given as “disrupting interaction strength”.

Variants of B3 are the subject of another experiment. The conditions noted are these: with fhl2_human FHL2, Q14192.
Regarding D118G, the “effect of a mutation on the interaction” value is reported as “disrupting interaction strength”.

Turning to N464K, the “effect of a mutation on the interaction” value is given as “disrupting interaction strength”.

Variants of B4 are the subject of another experiment. The note with it: with mtus2_human MTUS2, Q5JR59.
Target sequence in this assay (Q5JR59 whole entry): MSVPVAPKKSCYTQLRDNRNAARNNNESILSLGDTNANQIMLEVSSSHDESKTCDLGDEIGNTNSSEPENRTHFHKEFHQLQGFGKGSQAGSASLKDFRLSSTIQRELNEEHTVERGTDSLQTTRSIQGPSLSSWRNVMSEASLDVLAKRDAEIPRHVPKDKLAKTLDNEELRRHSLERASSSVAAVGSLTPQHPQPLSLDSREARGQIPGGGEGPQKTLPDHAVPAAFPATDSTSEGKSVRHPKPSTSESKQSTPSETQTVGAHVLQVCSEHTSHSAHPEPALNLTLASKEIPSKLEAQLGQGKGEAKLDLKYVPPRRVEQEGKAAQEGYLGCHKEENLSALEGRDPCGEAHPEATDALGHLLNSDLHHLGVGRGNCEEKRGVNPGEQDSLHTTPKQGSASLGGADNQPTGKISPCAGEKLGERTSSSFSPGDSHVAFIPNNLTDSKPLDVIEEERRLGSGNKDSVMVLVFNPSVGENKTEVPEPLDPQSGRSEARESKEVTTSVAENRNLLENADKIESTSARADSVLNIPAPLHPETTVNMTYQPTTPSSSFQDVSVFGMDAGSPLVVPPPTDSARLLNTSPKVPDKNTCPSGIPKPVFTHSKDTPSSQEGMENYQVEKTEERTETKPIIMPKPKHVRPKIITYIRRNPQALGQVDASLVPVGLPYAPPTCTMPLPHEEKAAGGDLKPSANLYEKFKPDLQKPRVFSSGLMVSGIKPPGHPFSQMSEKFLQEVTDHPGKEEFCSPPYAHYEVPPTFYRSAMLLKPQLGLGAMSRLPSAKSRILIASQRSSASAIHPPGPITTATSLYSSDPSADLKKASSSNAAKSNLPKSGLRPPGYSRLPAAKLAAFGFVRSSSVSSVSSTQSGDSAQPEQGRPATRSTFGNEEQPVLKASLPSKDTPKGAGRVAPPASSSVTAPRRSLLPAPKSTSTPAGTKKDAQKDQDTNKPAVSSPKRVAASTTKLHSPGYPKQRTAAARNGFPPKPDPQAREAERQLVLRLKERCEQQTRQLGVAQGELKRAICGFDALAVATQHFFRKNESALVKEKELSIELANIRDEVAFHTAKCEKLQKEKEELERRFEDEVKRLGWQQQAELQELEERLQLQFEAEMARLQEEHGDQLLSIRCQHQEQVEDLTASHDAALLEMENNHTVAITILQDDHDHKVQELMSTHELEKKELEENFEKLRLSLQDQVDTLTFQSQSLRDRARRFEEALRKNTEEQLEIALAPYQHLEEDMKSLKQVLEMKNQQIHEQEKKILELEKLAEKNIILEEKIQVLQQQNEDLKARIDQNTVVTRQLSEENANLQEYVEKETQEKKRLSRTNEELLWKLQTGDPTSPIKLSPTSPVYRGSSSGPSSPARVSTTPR
With P281L, the “effect of a mutation on the interaction” value is given as “with no effect”.

The variants in a further experiment derive from B4. The note with it: with ccd33_human CCDC33, Q8N5R6.
ccd33_human CCDC33, Q8N5R6, sequence (Q8N5R6 whole entry): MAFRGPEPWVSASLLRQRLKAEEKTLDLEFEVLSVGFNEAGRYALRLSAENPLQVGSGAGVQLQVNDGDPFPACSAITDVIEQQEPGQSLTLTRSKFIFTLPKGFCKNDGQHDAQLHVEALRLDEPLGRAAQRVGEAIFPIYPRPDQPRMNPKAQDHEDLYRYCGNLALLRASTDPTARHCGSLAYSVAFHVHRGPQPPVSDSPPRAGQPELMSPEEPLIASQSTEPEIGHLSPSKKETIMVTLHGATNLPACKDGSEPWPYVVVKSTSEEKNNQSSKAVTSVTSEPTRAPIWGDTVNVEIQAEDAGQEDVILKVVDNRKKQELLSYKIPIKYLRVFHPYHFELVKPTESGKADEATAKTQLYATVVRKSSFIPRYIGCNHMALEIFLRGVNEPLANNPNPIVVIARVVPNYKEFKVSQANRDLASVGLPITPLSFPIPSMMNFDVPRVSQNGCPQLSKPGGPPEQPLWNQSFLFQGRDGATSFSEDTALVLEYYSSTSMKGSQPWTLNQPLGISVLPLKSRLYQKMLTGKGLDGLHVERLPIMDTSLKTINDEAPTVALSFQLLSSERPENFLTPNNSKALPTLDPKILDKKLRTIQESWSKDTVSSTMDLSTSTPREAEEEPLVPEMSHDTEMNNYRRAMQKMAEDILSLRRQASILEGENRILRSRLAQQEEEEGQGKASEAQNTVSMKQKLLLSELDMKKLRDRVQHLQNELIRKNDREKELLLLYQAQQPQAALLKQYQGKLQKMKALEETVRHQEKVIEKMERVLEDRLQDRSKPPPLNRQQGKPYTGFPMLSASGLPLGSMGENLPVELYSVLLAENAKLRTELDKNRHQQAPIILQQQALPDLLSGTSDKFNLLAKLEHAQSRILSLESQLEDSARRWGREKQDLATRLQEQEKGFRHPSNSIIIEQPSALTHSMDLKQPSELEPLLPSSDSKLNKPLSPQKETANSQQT
As for V153I, the “effect of a mutation on the interaction” value is reported as “with no effect”.

In the next experiment the parent is B4. The note with it: with cpin1_human CIAPIN1, Q6FI81.
cpin1_human CIAPIN1, Q6FI81, sequence (Q6FI81 whole entry): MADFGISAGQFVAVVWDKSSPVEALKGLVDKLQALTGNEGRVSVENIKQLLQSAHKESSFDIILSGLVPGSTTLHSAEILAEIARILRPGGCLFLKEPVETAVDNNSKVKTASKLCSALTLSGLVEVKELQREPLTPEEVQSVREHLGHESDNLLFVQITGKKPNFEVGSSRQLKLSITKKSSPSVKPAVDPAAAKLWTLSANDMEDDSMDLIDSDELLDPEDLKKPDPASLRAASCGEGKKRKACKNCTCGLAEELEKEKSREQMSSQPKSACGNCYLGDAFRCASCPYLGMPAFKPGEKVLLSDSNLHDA
Regarding V153I, the “effect of a mutation on the interaction” value is recorded as “with no effect”.

Variants of B4 are the subject of another experiment. The note with it: with itf2_human TCF4, P15884.
Target sequence in this assay (P15884 whole entry): as the sequence (P15884 whole entry) above
Turning to V153I, the “effect of a mutation on the interaction” value is listed as “with no effect”.

In a further experiment the parent is B5. The conditions noted are these: with hm20a_human HMG20A.
D252G: the “effect of a mutation on the interaction” value is on record as “with no effect”.

As for M646I, the “effect of a mutation on the interaction” value was “with no effect”.

Variants of B5 are the subject of a further experiment. The note with it: with cep70_human CEP70, Q8NHQ1.
Target sequence in this assay (Q8NHQ1 whole entry): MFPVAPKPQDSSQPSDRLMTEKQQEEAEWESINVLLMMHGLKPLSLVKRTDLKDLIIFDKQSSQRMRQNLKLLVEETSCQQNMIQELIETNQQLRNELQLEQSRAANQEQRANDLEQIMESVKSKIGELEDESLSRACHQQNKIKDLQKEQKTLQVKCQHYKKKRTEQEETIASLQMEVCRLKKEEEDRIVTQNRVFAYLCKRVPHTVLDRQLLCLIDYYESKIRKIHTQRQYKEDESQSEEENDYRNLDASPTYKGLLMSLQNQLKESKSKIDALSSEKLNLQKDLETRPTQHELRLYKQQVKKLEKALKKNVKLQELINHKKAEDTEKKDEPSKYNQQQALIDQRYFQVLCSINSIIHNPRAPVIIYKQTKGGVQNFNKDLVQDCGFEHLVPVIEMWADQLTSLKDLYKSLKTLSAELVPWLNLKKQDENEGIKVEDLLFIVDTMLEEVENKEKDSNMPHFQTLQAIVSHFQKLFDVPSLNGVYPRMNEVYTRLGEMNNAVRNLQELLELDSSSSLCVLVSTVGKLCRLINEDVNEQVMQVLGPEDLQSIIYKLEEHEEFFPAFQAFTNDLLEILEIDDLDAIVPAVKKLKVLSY
In the case of D252G, the “effect of a mutation on the interaction” value was “with no effect”.

For M646I, the “effect of a mutation on the interaction” value is given as “disrupting interaction strength”.

In a further experiment the parent is B6. The conditions noted are these: with mtus2_human MTUS2, Q5JR59.
Target sequence in this assay (Q5JR59 whole entry): as the sequence (Q5JR59 whole entry) above
As for S242L, the “effect of a mutation on the interaction” value is “with no effect”.

Take R237S: the “effect of a mutation on the interaction” value is recorded as “with no effect”.

With R303Q, the “effect of a mutation on the interaction” value is recorded as “with no effect”.

As to D25E, the “effect of a mutation on the interaction” value was “with no effect”.

As to V215A, the “effect of a mutation on the interaction” value is “with no effect”.

Take H96L: the “effect of a mutation on the interaction” value was “with no effect”.

As for S292N, the “effect of a mutation on the interaction” value is “with no effect”.

As to R305P, the “effect of a mutation on the interaction” value is reported as “with no effect”.

In the next experiment the parent is B6. The note with it: with cep70_human CEP70, Q8NHQ1.
Target sequence in this assay (Q8NHQ1 whole entry): as the sequence (Q8NHQ1 whole entry) above
Consider S242L, for which the “effect of a mutation on the interaction” value is “with no effect”.

In the case of A210V, the “effect of a mutation on the interaction” value was “with no effect”.

In a further experiment the parent is B7. The note with it: with npm2_human NPM2, Q86SE8.
For the variant G242R, the “effect of a mutation on the interaction” value was “disrupting interaction strength”.

With G225R, the “effect of a mutation on the interaction” value was “disrupting interaction strength”.
